According to patent US20240418729A1:

Assays:
[1] = biological target: human kappa light chains (kappa LCs) of control pooled human serum (human); experiment: affinity capture from 50 µl IgG-depleted serum, elution, LysC digestion, PRM mass spectrometry
[2] = biological target: human lambda light chains (lambda LCs) of control pooled human serum (human); experiment: affinity capture from 100 µl IgG-depleted serum, elution, LysC digestion, PRM mass spectrometry
[3] = biological target: human kappa light chains (kappa LCs) of control pooled human serum (human); experiment: affinity capture from IgG-depleted serum, elution, LysC digestion, PRM mass spectrometry

Capture Select affinity beads specific for kappa (KappaXP) LCs
fold increase in kappa FLC dimer signal compared to un-enriched serum [1]: 186 fold

Capture Select affinity beads specific for lambda (LambdaXP) LCs
fold increase in lambda FLC dimer signal compared to un-enriched serum [2]: 113 fold

protein L agarose
fold increase in kappa FLC dimer signal compared to un-enriched serum [3]: 155 fold
